Measured values as given in publication PMC8771830, “Multimerization of the GATA4 transcription factor regulates transcriptional activity and cardiomyocyte hypertrophic response” (International Journal of Biological Sciences, 2022).

Target: the molecule itself
Assay: SEC; purified GATA4 on Superdex200 Increase 10/300 GL in 20 mM HEPES-NaOH pH 7.4, 100 mM NaCl; fractions blotted with anti-GATA4

B1: Full length GATA4 produced by E. coli (natural protein)
chain: not shown
notes: GATA4, full length; also called purified GATA4; recombinant GATA4; source: E. coli BL21 DE3, purified (Glutathione-Sepharose 4B, GST removed with HRV3C protease)
B1 was tested, and the “stoichiometry N” value was roughly 8.
